Test results reported in patent US20160229919A1 (US Dept. of Health and Human Services, published 2016).

What was measured:
[1] = molecular target: human transferrin receptor (human) (UniProt P02786); experiment: flow cytometry on NCI-H322M cells
[2] = molecular target: human transferrin receptor (human) (UniProt P02786); experiment: cell-based or functional assay
[3] = molecular target: human transferrin receptor (human) (UniProt P02786); experiment: flow cytometry on YOU cells
[4] = molecular target: human transferrin receptor (human) (UniProt P02786); experiment: flow cytometry on EKVX cells
[5] = molecular target: human transferrin receptor (human) (UniProt P02786); experiment: flow cytometry on L55 cells
[6] = molecular target: cell-surface mesothelin on mesothelin-expressing cells (human) (UniProt Q13421); experiment: flow cytometry on OVCAR8 cells
[7] = molecular target: cell-surface mesothelin on mesothelin-expressing cells (human) (UniProt Q13421); experiment: flow cytometry on NCI-H322M cells
[8] = molecular target: cell-surface mesothelin on mesothelin-expressing cells (human) (UniProt Q13421); experiment: flow cytometry on NCI-ADR-RES cells
[9] = molecular target: cell-surface mesothelin on mesothelin-expressing cells (human) (UniProt Q13421); experiment: flow cytometry on KMCH cells
[10] = molecular target: cell-surface mesothelin on mesothelin-expressing cells (human) (UniProt Q13421); experiment: flow cytometry on H9 cells
[11] = molecular target: cell-surface mesothelin on mesothelin-expressing cells (human) (UniProt Q13421); experiment: flow cytometry on Mz-Cha-1 cells
[12] = molecular target: cell-surface mesothelin on mesothelin-expressing cells (human) (UniProt Q13421); experiment: flow cytometry on H9 cells; remark: listed apart in the source
[13] = molecular target: cell-surface mesothelin on mesothelin-expressing cells (human) (UniProt Q13421); experiment: cell-based or functional assay
[14] = molecular target: cell-surface mesothelin on mesothelin-expressing cells (human) (UniProt Q13421); experiment: flow cytometry on M30 cells
[15] = molecular target: cell-surface mesothelin on mesothelin-expressing cells (human) (UniProt Q13421); experiment: flow cytometry on YOU cells
[16] = molecular target: cell-surface mesothelin on mesothelin-expressing cells (human) (UniProt Q13421); experiment: flow cytometry on NCI-H226 cells
[17] = molecular target: cell-surface mesothelin on mesothelin-expressing cells (human) (UniProt Q13421); experiment: flow cytometry on EKVX cells
[18] = molecular target: cell-surface mesothelin on mesothelin-expressing cells (human) (UniProt Q13421); experiment: flow cytometry on L55 cells
[19] = molecular target: cell-surface mesothelin on mesothelin-expressing cells (human) (UniProt Q13421); experiment: flow cytometry on KMBC cells
[20] = molecular target: mesothelin Region I fragment (residues 296-390) (human, UniProt Q13421 296-390); experiment: ELISA on mesothelin fragments
Chain of mesothelin Region I fragment (residues 296-390) (Q13421 296-390): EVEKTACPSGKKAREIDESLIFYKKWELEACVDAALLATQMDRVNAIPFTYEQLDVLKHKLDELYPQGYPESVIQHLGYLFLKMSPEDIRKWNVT

[21] = molecular target: recombinant mesothelin protein (full-length mesothelin) (human) (UniProt Q13421); experiment: ELISA, mAb titrated on mesothelin (1 ug/ml), fit with Prism
[22] = molecular target: mesothelin-Fc fusion protein (human) (UniProt Q13421); experiment: sandwich ELISA: YP223 capture, mesothelin-Fc titrated, biotinylated YP218 detection

Chain of human transferrin receptor (human) (P02786 whole entry): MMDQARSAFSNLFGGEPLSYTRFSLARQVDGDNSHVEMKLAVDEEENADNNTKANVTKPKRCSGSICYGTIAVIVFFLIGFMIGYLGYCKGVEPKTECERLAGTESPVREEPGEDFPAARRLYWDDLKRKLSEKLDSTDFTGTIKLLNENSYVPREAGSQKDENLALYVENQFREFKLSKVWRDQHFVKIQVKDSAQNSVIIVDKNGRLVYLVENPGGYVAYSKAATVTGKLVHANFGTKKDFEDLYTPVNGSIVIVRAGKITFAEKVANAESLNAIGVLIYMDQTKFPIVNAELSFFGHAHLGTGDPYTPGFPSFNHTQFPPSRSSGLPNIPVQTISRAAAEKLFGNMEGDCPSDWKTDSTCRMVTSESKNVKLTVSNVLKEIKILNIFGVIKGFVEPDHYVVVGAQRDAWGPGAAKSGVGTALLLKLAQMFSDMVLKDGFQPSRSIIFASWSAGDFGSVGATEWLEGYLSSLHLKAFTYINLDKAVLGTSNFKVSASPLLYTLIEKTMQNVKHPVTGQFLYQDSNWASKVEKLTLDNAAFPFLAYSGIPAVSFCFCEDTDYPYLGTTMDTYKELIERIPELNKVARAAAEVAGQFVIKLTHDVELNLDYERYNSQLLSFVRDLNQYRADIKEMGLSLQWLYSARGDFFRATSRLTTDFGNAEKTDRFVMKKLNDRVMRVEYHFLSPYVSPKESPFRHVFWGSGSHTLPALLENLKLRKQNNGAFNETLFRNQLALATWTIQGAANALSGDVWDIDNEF

Molecule HB21-PE40 immunotoxin has a Kd [1] of 6.05 nM, an IC50 (ng ml^-1), cytotoxicity on EKVX cells [2] of 0.21 ng/mL and an IC50 (ng ml^-1), cytotoxicity on H226-GL cells [2] of 0.22 ng/mL. The IC50 (ng ml^-1), cytotoxicity on L55 cells [2] was 0.57 ng/mL, the IC50 (ng ml^-1), cytotoxicity on M30 cells [2] was 0.51 ng/mL and the IC50 (ng ml^-1), cytotoxicity on NCI-ADR-RES cells [2] was 0.12 ng/mL. For the same molecule, the IC50 (ng ml^-1), cytotoxicity on NCI-H322M cells [2] was 0.31 ng/mL, the Kd [3] was 24.7 nM and the Kd [4] was 6.28 nM. For the same molecule, the Kd [5] was 9.74 nM.

Molecule SS1P immunotoxin has a Kd [6] of 0.6 nM, a Kd [7] of 0.44 nM and a Kd [8] of 1.41 nM. For the same molecule, the Kd [9] was 1.26 nM, the Kd [10] was 4.82 nM and the Kd [11] was 1.3 nM. For the same molecule, the Kd [12] was 1.3 nM, the IC50 (ng ml^-1), cytotoxicity on EKVX cells [13] was 55.4 ng/mL and the IC50 (ng ml^-1), cytotoxicity on H9 cells [13] was 0.076 ng/mL. The IC50 (ng ml^-1), cytotoxicity on H226-GL cells [13] was 1.99 ng/mL, the IC50 (ng ml^-1), cytotoxicity on KMBC cells [13] was 3.39 ng/mL and the IC50 (ng ml^-1), cytotoxicity on KMCH cells [13] was 7.23 ng/mL. The IC50 (ng ml^-1), cytotoxicity on L55 cells [13] was 5.89 ng/mL, the IC50 (ng ml^-1), cytotoxicity on M30 cells [13] was 7.13 ng/mL and the IC50 (ng ml^-1), cytotoxicity on Mz-Cha-1 cells [13] was 21.6 ng/mL. For the same molecule, the IC50 (ng ml^-1), cytotoxicity on NCI-ADR-RES cells [13] was 1.2 ng/mL, the IC50 (ng ml^-1), cytotoxicity on NCI-H226 cells [13] was 5.29 ng/mL and the IC50 (ng ml^-1), cytotoxicity on NCI-H322M cells [13] was 4.02 ng/mL. For the same molecule, the IC50 (ng ml^-1), cytotoxicity on OVCAR8 cells [13] was 1.82 ng/mL, the IC50 (ng ml^-1), cytotoxicity on YOU cells [13] was 13 ng/mL and the IC50 (ng/ml), cytotoxicity on RH16 mesothelioma patient primary cells [13] was 10.4 ng/mL. For the same molecule, the IC50 (ng/ml), cytotoxicity on RH18 mesothelioma patient primary cells [13] was over 100 ng/mL, the IC50 (ng/ml), cytotoxicity on RH19 mesothelioma patient primary cells [13] was 0.63 ng/mL and the IC50 (ng/ml), cytotoxicity on RH21 mesothelioma patient primary cells [13] was 0.73 ng/mL. It also gave a Kd [14] of 0.49 nM, a Kd [15] of 1.48 nM and a Kd [16] of 1.49 nM. It also gave a Kd [17] of 1.7 nM, a Kd [18] of 1.04 nM and a Kd [19] of 2.15 nM.

B1: YP158 rabbit monoclonal antibody (antibody, V domains shown)
VH: QSLEESGGDLVKPGASLTLTCTASGFSFSGDYYMCWVRQAPGKGLEWIACIGGGSNTATYYATWAKGRFTISKTSSTTVTLQMTSLTAADTATYFCARDLGFVDYALELWGPGTLVTVSS
VL: DIVMTQTPASVEVAVGGTVTIKCQASENMYNSLAWYQQKPGQPPKLLIYRASTLESGVPSRFKGSGSGTEYTLTISDLECADAATYYCQCTFYSHNNNYGGAFGGGTEVVV
notes: Rabbit hybridoma mAb (rabbit IgG)
B1: binds [20].

B2: YP3 rabbit monoclonal antibody (antibody, V domains shown)
VH: QEQLVESGGGLVQPGASLTLTCTASGIDFSRYYMCWVRQAPGKGLEGIACIYIGGSGSTYYASWAKGRFTISKASSTTVTLQMTSLTAADTATYFCARGTNLNYIFRLWGPGTLVTVSS
VL: DVVMTQTPSPVSAAVGGTVTIKCQASQSINNGLAWYQQKPGQPPRLLIYSASNLESGVPSRFKGSGSGTEFTLTISDLECDDAATYYCQCIWDGNSYVNAFGGGTEVVV
For B2, the Kd [21] was 0.42 nM.

B3: YP223 rabbit monoclonal antibody (antibody, V domains shown)
VH: QEQLEESGGDLVQPEGSLTLTCKASGLDFSSSYWICWVRQAPGKGLEWIGCRHTFTANTWSASWVNGRFTISRSTSLGTVDLKMTSLTAADTATYFCARDESNNDGWDFKLWGPGTLVTVSS
VL: AYDMTQTPASVSAAVGGTVTIKCQASQSISNYLAWYQQKPGQPPKLLIYQASTLAPGVSSRFKGSGSGTEFTLTISGVECADAATYYCQQGYTSSNVENVFGGGTGVVV
B3 gave a Kd [21] of 0.65 nM and an EC50 [22] of 0.5 nM.

B4: YP218 rabbit monoclonal antibody (antibody, V domains shown)
VH: QQQLEESGGGLVKPEGSLTLTCKASGFDLGFYFYACWVRQAPGKGLEWIACIYTAGSGSTYYASWAKGRFTISKASSTTVTLQMTSLAAADTATYFCARSTANTRSTYYLNLWGPGTLVTVSS
VL: DVVMTQTPASVSEPVGGTVTIKCQASQRISSYLSWYQQKPGQRPKLLIFGASTLASGVPSRFKGSGSGTEYTLTISDLECADAATYYCQSYAYFDSNNWHAFGGGTEVVV
Molecule B4 has a Kd [21] of 0.91 nM.
